Values of other authors, collected in patent US10603364B2, “Lysosomal targeting and uses thereof” (Shire Human Genetic Therapies, Inc., priority 2014, dated 2020).

Assays:
[1] = molecular target: IGF-I receptor (Homo sapiens, UniProt P08069)
[2] = molecular target: M6P/IGF II receptor (cation-independent mannose-6-phosphate receptor) (Homo sapiens, UniProt P11717)
Chain of M6P/IGF II receptor (cation-independent mannose-6-phosphate receptor) (P11717 41-2491): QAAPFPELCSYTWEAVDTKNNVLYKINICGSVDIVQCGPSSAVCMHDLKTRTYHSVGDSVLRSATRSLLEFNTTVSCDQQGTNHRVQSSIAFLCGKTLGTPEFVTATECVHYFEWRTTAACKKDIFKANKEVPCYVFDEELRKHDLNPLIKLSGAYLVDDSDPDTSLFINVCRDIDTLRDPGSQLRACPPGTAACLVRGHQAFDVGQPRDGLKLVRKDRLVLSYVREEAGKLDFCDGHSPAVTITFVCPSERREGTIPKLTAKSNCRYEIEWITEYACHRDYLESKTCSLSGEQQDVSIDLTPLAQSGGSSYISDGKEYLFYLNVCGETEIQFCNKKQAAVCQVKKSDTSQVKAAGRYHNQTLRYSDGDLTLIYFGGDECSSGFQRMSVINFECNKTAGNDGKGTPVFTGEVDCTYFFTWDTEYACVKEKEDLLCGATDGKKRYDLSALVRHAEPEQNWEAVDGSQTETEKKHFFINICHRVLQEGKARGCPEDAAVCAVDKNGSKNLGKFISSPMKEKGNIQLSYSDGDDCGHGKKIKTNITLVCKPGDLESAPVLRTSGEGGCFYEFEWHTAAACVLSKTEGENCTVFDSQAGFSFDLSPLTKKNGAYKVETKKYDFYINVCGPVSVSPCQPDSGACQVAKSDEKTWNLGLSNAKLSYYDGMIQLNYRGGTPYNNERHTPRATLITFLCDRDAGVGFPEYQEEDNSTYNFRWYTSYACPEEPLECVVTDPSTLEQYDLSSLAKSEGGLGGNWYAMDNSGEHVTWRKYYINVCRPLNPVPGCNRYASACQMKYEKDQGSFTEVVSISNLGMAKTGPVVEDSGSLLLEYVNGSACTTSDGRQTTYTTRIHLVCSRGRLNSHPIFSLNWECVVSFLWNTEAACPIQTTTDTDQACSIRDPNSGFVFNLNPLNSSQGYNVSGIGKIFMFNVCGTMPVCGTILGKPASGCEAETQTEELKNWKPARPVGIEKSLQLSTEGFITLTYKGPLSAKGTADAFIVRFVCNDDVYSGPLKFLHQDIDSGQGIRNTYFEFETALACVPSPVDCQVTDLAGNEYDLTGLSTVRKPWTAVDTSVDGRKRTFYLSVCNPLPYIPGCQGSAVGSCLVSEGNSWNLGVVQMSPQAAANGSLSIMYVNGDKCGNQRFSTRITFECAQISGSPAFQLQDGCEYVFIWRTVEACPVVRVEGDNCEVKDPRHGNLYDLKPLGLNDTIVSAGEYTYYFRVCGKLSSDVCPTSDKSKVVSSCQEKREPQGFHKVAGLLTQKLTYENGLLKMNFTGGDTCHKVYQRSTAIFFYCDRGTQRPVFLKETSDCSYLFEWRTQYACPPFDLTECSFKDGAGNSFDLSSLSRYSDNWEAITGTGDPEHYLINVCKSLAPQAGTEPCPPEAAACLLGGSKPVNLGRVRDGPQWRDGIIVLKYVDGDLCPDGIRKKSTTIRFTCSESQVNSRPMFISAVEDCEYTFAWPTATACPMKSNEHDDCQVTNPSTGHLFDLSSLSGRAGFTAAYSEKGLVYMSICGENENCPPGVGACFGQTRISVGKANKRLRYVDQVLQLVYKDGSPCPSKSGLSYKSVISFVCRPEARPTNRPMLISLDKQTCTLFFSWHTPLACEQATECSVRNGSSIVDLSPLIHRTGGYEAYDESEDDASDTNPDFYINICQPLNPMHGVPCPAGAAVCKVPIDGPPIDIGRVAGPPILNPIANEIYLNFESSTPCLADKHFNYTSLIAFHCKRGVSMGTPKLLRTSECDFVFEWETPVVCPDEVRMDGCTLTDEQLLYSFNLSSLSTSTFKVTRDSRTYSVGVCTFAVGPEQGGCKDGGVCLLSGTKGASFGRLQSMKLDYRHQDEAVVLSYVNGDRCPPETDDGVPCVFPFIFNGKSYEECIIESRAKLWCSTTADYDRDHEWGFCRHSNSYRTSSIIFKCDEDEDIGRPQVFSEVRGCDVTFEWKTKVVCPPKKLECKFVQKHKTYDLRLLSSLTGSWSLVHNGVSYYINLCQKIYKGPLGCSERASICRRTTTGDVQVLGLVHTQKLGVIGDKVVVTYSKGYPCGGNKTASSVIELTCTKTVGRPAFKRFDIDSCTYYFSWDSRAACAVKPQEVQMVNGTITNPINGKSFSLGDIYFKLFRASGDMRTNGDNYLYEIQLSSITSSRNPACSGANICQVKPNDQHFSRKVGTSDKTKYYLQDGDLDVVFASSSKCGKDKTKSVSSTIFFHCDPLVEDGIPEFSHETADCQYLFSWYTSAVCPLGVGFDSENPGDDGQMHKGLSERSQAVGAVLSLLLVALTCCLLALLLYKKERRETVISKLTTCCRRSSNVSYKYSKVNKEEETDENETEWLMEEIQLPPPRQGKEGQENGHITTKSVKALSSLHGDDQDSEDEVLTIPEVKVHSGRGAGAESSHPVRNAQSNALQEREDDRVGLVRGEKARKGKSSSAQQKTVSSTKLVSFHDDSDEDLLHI

Chain of IGF-I receptor (P08069 31-736 limits assumed, species assumed): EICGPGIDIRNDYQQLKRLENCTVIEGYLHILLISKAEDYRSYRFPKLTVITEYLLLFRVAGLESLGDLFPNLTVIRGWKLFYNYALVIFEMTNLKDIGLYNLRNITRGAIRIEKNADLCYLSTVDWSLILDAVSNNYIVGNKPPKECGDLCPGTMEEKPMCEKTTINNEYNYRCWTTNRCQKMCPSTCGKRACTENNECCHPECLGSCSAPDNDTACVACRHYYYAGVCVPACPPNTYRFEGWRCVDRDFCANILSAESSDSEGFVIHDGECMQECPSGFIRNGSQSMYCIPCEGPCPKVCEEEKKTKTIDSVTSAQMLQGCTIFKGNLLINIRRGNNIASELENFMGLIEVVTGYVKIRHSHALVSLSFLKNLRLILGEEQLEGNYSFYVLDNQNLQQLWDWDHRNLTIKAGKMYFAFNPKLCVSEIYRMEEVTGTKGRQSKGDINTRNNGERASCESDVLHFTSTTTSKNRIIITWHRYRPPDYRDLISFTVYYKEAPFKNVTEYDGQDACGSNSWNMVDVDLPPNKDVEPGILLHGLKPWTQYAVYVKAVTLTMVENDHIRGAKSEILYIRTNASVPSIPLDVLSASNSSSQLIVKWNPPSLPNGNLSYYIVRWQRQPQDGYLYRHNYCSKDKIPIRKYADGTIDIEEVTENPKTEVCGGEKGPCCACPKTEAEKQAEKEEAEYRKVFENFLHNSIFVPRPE
Chain of IGF-I receptor (P08069 741-1367 partner limits assumed, species assumed): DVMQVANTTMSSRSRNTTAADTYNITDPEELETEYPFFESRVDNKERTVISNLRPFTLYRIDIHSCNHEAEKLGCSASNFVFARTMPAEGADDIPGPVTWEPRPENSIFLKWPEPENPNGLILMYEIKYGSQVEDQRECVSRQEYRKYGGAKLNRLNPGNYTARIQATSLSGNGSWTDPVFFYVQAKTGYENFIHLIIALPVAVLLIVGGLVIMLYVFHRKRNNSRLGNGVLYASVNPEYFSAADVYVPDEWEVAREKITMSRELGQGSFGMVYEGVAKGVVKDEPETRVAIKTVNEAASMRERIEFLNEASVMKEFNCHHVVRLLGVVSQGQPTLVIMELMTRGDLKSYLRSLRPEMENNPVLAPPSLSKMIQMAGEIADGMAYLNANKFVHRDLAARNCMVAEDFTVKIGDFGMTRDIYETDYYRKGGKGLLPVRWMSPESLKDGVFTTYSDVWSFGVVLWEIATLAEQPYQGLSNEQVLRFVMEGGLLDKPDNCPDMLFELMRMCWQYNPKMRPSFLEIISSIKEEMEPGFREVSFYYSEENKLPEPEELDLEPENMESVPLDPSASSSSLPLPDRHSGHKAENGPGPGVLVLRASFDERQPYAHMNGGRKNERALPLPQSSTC

IGF-II sequence containing amino acid 8-67: amino acid residues 8-67 of the Insulin-like Growth Factor II peptide sequence, SEQ ID NO:21
decrease in ability to bind IGF-I receptor compared to full-length IGF-II [1]: 30 fold
higher affinity for M6P/IGF II receptor compared to full-length IGF-II [2]: 2-10 fold
